Test results reported in PMC10449786.

Molecular target: human citrullinated fibrinogen (hCitFbg) (human) (UniProt P02671)
Test: ELISA; Fbg or citrullinated Fbg coated (0.8 μg/mL in PBS, overnight 4 °C); recombinant SAA 10–2000 ng/mL added, 1 h at 37 °C; detected with anti-hSAA1; apparent Kd

B1: recombinant human serum amyloid A1 (hSAA1) (natural protein)
chain: RSFFSFLGEAFDGARDMWRAYSDMREANYIGSDKYFHARGNYDAAKRGPGGAWAAEVITDARENIQRFFGHGAEDSLADQAANEWGRSGKDPNHFRPAGLPEKY
B1 showed an apparent Kd relative to hSAA1-hFbg of 0.5 fold.
